Data published in patent US20150050309A1.

B1: galanthus nivalis lectin (protein, UniProt P30617 24-128, looked up)
chain: DNILYSGETLSTGEFLNYGSFVFIMQEDCNLVLYDVDKPIWATNTGGLSRSCFLSMQTDGNLVVYNPSNKPIWASNTGGQNGNYVCILQKDRNVVIYGTDRWATG
B2: urtica diotica (UDA) lectin (protein, UniProt P11218 24-112, looked up)
chain: QRCGSQGGGGTCPALWCCSIWGWCGDSEPYCGRTCENKCWSGERSDHRCGAAVGNPPCGQDRCCSVHGWCGGGNDYCSGSKCQYRCSSS

Tests used:
Experiment in all cases: cell-based or functional assay
[1] = target: HIV Env of primary isolate 6101 (HIV)
[2] = target: HIV Env of primary isolate BG1168 (HIV)
[3] = target: HIV Env of primary isolate DU123 (HIV)
[4] = target: HIV Env of primary isolate DU422 (HIV)
[5] = target: HIV Env of primary isolate SF162 (HIV)
[6] = target: HIV Env of primary isolate TV-1 (HIV)

Row | Binder | neutralization titer of HIV primary isolate (lectin at 400 ug/ml) [1] | neutralization titer of HIV primary isolate (lectin at 400 ug/ml) [2] | neutralization titer of HIV primary isolate (lectin at 400 ug/ml) [3] | neutralization titer of HIV primary isolate (lectin at 400 ug/ml) [4] | neutralization titer of HIV primary isolate (lectin at 400 ug/ml) [5] | neutralization titer of HIV primary isolate (lectin at 400 ug/ml) [6] | neutralization titer of HIV primary isolate [1] | neutralization titer of HIV primary isolate [2] | neutralization titer of HIV primary isolate [3] | neutralization titer of HIV primary isolate [4] | neutralization titer of HIV primary isolate [5] | neutralization titer of HIV primary isolate [6]
1 | B1 | 724 titer | < 20 titer | > 43700 titer | > 43700 titer | 22400 titer | > 43700 titer | – | – | – | – | – | –
2 | B2 | – | – | – | – | – | – | 428 titer | 190 titer | 1580 titer | 468 titer | 467 titer | 600 titer
